Data: article PMC6433865

Key:
[1] = biological target: T1, C terminus of Hsc70-interacting protein (CHIP) (human), Q9UNE7; assay: cryo-EM structure; ternary complexes after GraFix, vitrified; Titan Krios 300 kV (Hsp70:p53-TMGST:CHIP, 15 Å) or Talos Arctica 200 kV (Hsp90:p53-TMGST:CHIP, 13 Å); atomic structures docked; conditions: remark: other sources report otherwise
T1 chain: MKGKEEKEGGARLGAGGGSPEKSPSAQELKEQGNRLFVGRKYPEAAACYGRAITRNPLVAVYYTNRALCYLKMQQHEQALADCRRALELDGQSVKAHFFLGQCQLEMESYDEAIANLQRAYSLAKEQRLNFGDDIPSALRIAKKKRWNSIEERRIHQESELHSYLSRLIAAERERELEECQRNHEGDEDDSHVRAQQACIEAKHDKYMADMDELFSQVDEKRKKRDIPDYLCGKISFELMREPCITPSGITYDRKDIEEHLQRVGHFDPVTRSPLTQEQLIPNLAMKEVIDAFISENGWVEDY

[2] = biological target: T1, C terminus of Hsc70-interacting protein …; assay: negative-stain electron microscopy, 3D reconstruction; complexes stabilised and isolated by GraFix (10-30% glycerol gradient, 0.15% glutaraldehyde), stained with 2% uranyl acetate, JEOL JEM1010 at 80 kV; atomic structures docked into 19-26 Å volumes; conditions: remark: other sources report otherwise

stoichiometry N [1]: 2
stoichiometry N [2]: 2
B1: C terminus of Hsc70-interacting protein (CHIP), Q9UNE7 1-303 (enzyme)
chain: MKGKEEKEGGARLGAGGGSPEKSPSAQELKEQGNRLFVGRKYPEAAACYGRAITRNPLVAVYYTNRALCYLKMQQHEQALADCRRALELDGQSVKAHFFLGQCQLEMESYDEAIANLQRAYSLAKEQRLNFGDDIPSALRIAKKKRWNSIEERRIHQESELHSYLSRLIAAERERELEECQRNHEGDEDDSHVRAQQACIEAKHDKYMADMDELFSQVDEKRKKRDIPDYLCGKISFELMREPCITPSGITYDRKDIEEHLQRVGHFDPVTRSPLTQEQLIPNLAMKEVIDAFISENGWVEDY
